The text below walks through data of the supplement of paper PMC9112550, “Optimization of the antimicrobial peptide Bac7 by deep mutational scanning” (BMC Biology, 2022).

In this data set the test system is Escherichia coli TOP10. The data set can be described thus: shrunken log2 fold change of peptide-encoding DNA abundance (4.5 h post-induction vs induction); higher = less antimicrobial activity (less host growth inhibition). Particulars: time post-induction: 4.5 h; library: site-saturation at positions 5, 18, 19, 20.
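Note: peptides expressed intracellularly from a pBAD plasmid library in pooled LB shake-flask culture, induced with 0.3% L-arabinose, DNA abundance read by NGS, three biological replicates, DESeq2 with apeglm shrinkage.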

Regarding RRIRNRPPRLPRPRPRPTLSPRP, the “shrunken log2 fold change” value came out at 0.145.

Take RRIRVRPPRLPRPRPRPLTQPRP: the “shrunken log2 fold change” value came to 0.149.

With RRIRFRPPRLPRPRPRPRSNPRP, the “shrunken log2 fold change” value was -0.336.

As to RRIRKRPPRLPRPRPRPMRKPRP, the “shrunken log2 fold change” value worked out at 1.44.

Consider RRIRNRPPRLPRPRPRPRQGPRP, for which the “shrunken log2 fold change” value is -0.0662.

With RRIRTRPPRLPRPRPRPNQLPRP, the “shrunken log2 fold change” value is -0.101.

In the case of RRIRIRPPRLPRPRPRPVAIPRP, the “shrunken log2 fold change” value worked out at 0.0188.

As to RRIRWRPPRLPRPRPRPVQQPRP, the “shrunken log2 fold change” value is -0.0911.

As to RRIRGRPPRLPRPRPRPTWNPRP, the “shrunken log2 fold change” value is 0.359.

As to RRIRIRPPRLPRPRPRPHWIPRP, the “shrunken log2 fold change” value is -0.157.

Turning to RRIRARPPRLPRPRPRPIQWPRP, the “shrunken log2 fold change” value stood at 0.0649.

For RRIRQRPPRLPRPRPRPHCVPRP, the “shrunken log2 fold change” value was -0.0218.

On to RRIRIRPPRLPRPRPRPGYYPRP, for which the “shrunken log2 fold change” value was -0.708.

Take RRIRMRPPRLPRPRPRPYTKPRP: the “shrunken log2 fold change” value is -0.0606.

Consider RRIRPRPPRLPRPRPRPMRVPRP, for which the “shrunken log2 fold change” value amounted to 0.998.

As to RRIRHRPPRLPRPRPRPIRGPRP, the “shrunken log2 fold change” value was 0.0308.

Consider RRIRKRPPRLPRPRPRPTGGPRP, for which the “shrunken log2 fold change” value is 0.13.

As for RRIRCRPPRLPRPRPRPNFMPRP, the “shrunken log2 fold change” value was -0.448.

Regarding RRIRQRPPRLPRPRPRPVHPPRP, the “shrunken log2 fold change” value was found to be 0.211.

With RRIRARPPRLPRPRPRPFLFPRP, the “shrunken log2 fold change” value was 0.162.

As for RRIRIRPPRLPRPRPRPCQKPRP, the “shrunken log2 fold change” value was -0.0157.

RRIRRRPPRLPRPRPRPQFYPRP: the “shrunken log2 fold change” value is -0.41.

For RRIRNRPPRLPRPRPRPLTVPRP, the “shrunken log2 fold change” value was determined as 0.0619.

As to RRIRMRPPRLPRPRPRPEECPRP, the “shrunken log2 fold change” value worked out at 0.0665.

As for RRIRIRPPRLPRPRPRPFSPPRP, the “shrunken log2 fold change” value was -0.267.

On to RRIRMRPPRLPRPRPRPITNPRP, for which the “shrunken log2 fold change” value is -0.192.

With RRIRARPPRLPRPRPRPGTRPRP, the “shrunken log2 fold change” value came out at 0.532.

In the case of RRIRNRPPRLPRPRPRPNPMPRP, the “shrunken log2 fold change” value is -0.0603.

As to RRIRLRPPRLPRPRPRPMYTPRP, the “shrunken log2 fold change” value was -0.119.

As to RRIRYRPPRLPRPRPRPLESPRP, the “shrunken log2 fold change” value is -0.0422.

In the case of RRIRGRPPRLPRPRPRPRVKPRP, the “shrunken log2 fold change” value is 0.856.

On to RRIRWRPPRLPRPRPRPQLYPRP, for which the “shrunken log2 fold change” value is 0.185.

As for RRIRRRPPRLPRPRPRPWLQPRP, the “shrunken log2 fold change” value was 0.0763.

For RRIRKRPPRLPRPRPRPWGMPRP, the “shrunken log2 fold change” value is 0.142.

On to RRIRFRPPRLPRPRPRPLYQPRP, for which the “shrunken log2 fold change” value is -0.374.

As to RRIRDRPPRLPRPRPRPSVTPRP, the “shrunken log2 fold change” value worked out at 0.0709.

Regarding RRIRRRPPRLPRPRPRPETGPRP, the “shrunken log2 fold change” value turned out to be 0.304.

Consider RRIRGRPPRLPRPRPRPFLSPRP, for which the “shrunken log2 fold change” value amounted to 0.162.

As to RRIRLRPPRLPRPRPRPTFAPRP, the “shrunken log2 fold change” value turned out to be 0.394.

Take RRIRWRPPRLPRPRPRPHRYPRP: the “shrunken log2 fold change” value was -0.15.

For the sequence RRIRFRPPRLPRPRPRPTAHPRP, the “shrunken log2 fold change” value stood at 0.193.

On to RRIRKRPPRLPRPRPRPKTLPRP, for which the “shrunken log2 fold change” value stood at 0.239.

Turning to RRIRTRPPRLPRPRPRPERNPRP, the “shrunken log2 fold change” value was -0.201.

In the case of RRIRNRPPRLPRPRPRPKYEPRP, the “shrunken log2 fold change” value was -0.167.

As to RRIRQRPPRLPRPRPRPKYGPRP, the “shrunken log2 fold change” value was -0.3.

As to RRIRMRPPRLPRPRPRPWLDPRP, the “shrunken log2 fold change” value stood at 0.0568.

As to RRIRDRPPRLPRPRPRPMREPRP, the “shrunken log2 fold change” value is -0.0167.

For the sequence RRIRTRPPRLPRPRPRPEHAPRP, the “shrunken log2 fold change” value was -0.108.

Regarding RRIRFRPPRLPRPRPRPWMKPRP, the “shrunken log2 fold change” value is -0.0336.

With RRIRLRPPRLPRPRPRPPRDPRP, the “shrunken log2 fold change” value turned out to be 0.531.

Regarding RRIRDRPPRLPRPRPRPETTPRP, the “shrunken log2 fold change” value came to 0.0986.

For RRIRHRPPRLPRPRPRPEAFPRP, the “shrunken log2 fold change” value is -0.0165.

As to RRIRERPPRLPRPRPRPFTNPRP, the “shrunken log2 fold change” value was -0.457.

With RRIRFRPPRLPRPRPRPDYFPRP, the “shrunken log2 fold change” value was -0.167.

Regarding RRIRTRPPRLPRPRPRPRCGPRP, the “shrunken log2 fold change” value worked out at 0.172.

Turning to RRIRARPPRLPRPRPRPFVGPRP, the “shrunken log2 fold change” value is -0.0485.

Regarding RRIRCRPPRLPRPRPRPGEEPRP, the “shrunken log2 fold change” value came to 0.135.

For RRIRSRPPRLPRPRPRPHPLPRP, the “shrunken log2 fold change” value is -0.00402.

For the sequence RRIRGRPPRLPRPRPRPKTWPRP, the “shrunken log2 fold change” value worked out at 0.155.

Regarding RRIRFRPPRLPRPRPRPNLGPRP, the “shrunken log2 fold change” value was -0.0272.

With RRIRDRPPRLPRPRPRPDNQPRP, the “shrunken log2 fold change” value is -0.105.

As to RRIRPRPPRLPRPRPRPAVMPRP, the “shrunken log2 fold change” value was found to be 0.215.

With RRIRTRPPRLPRPRPRPFTCPRP, the “shrunken log2 fold change” value came out at 0.0121.

Turning to RRIRDRPPRLPRPRPRPSTNPRP, the “shrunken log2 fold change” value is -0.16.

With RRIRFRPPRLPRPRPRPQLQPRP, the “shrunken log2 fold change” value amounted to 0.0569.

Regarding RRIRTRPPRLPRPRPRPVTPPRP, the “shrunken log2 fold change” value is 0.184.

In the case of RRIRSRPPRLPRPRPRPSENPRP, the “shrunken log2 fold change” value is -0.113.

On to RRIRTRPPRLPRPRPRPTMNPRP, for which the “shrunken log2 fold change” value was -0.371.

Turning to RRIRRRPPRLPRPRPRPARCPRP, the “shrunken log2 fold change” value was 0.42.

Consider RRIRFRPPRLPRPRPRPWITPRP, for which the “shrunken log2 fold change” value was -0.192.

For the sequence RRIRYRPPRLPRPRPRPKYSPRP, the “shrunken log2 fold change” value is -0.274.

RRIRLRPPRLPRPRPRPLAKPRP: the “shrunken log2 fold change” value came to 0.0773.

Regarding RRIRWRPPRLPRPRPRPHQAPRP, the “shrunken log2 fold change” value worked out at 0.257.

With RRIRKRPPRLPRPRPRPILSPRP, the “shrunken log2 fold change” value is 0.00626.

As for RRIRSRPPRLPRPRPRPTPGPRP, the “shrunken log2 fold change” value stood at 0.451.

Regarding RRIRWRPPRLPRPRPRPHTQPRP, the “shrunken log2 fold change” value is -0.56.

Turning to RRIRARPPRLPRPRPRPILEPRP, the “shrunken log2 fold change” value is -0.0126.

Consider RRIRNRPPRLPRPRPRPGVEPRP, for which the “shrunken log2 fold change” value is 0.604.

For RRIRYRPPRLPRPRPRPWQNPRP, the “shrunken log2 fold change” value was -0.103.

For RRIRNRPPRLPRPRPRPFRPPRP, the “shrunken log2 fold change” value is -0.215.

On to RRIRLRPPRLPRPRPRPIVGPRP, for which the “shrunken log2 fold change” value was 0.0604.

Regarding RRIRSRPPRLPRPRPRPHFYPRP, the “shrunken log2 fold change” value was determined as 0.166.

On to RRIRIRPPRLPRPRPRPIFVPRP, for which the “shrunken log2 fold change” value is -0.28.

RRIRLRPPRLPRPRPRPIHQPRP: the “shrunken log2 fold change” value was found to be 0.0518.

Consider RRIRARPPRLPRPRPRPIVGPRP, for which the “shrunken log2 fold change” value was -0.0201.

On to RRIRHRPPRLPRPRPRPTPHPRP, for which the “shrunken log2 fold change” value stood at 0.281.

For RRIRSRPPRLPRPRPRPMQAPRP, the “shrunken log2 fold change” value is 0.0325.

Turning to RRIRYRPPRLPRPRPRPAIKPRP, the “shrunken log2 fold change” value was -0.411.

As to RRIRGRPPRLPRPRPRPPRCPRP, the “shrunken log2 fold change” value worked out at 0.951.

In the case of RRIRWRPPRLPRPRPRPHVHPRP, the “shrunken log2 fold change” value is -0.126.

Consider RRIRWRPPRLPRPRPRPGHEPRP, for which the “shrunken log2 fold change” value was determined as 0.0994.

Take RRIRLRPPRLPRPRPRPTCTPRP: the “shrunken log2 fold change” value is -0.0583.

As to RRIRVRPPRLPRPRPRPEYRPRP, the “shrunken log2 fold change” value is -0.115.

For the sequence RRIRIRPPRLPRPRPRPYPTPRP, the “shrunken log2 fold change” value was -0.159.

With RRIRERPPRLPRPRPRPRKCPRP, the “shrunken log2 fold change” value was -0.0265.

On to RRIRKRPPRLPRPRPRPDEEPRP, for which the “shrunken log2 fold change” value stood at 2.82.

As to RRIRPRPPRLPRPRPRPYLGPRP, the “shrunken log2 fold change” value was found to be 3.16.

Take RRIRSRPPRLPRPRPRPHEWPRP: the “shrunken log2 fold change” value amounted to 0.147.

RRIRLRPPRLPRPRPRPFYVPRP: the “shrunken log2 fold change” value is -0.5.

As for RRIRPRPPRLPRPRPRPVEHPRP, the “shrunken log2 fold change” value was 0.00343.

Consider RRIRDRPPRLPRPRPRPVVLPRP, for which the “shrunken log2 fold change” value stood at 0.268.

Consider RRIRTRPPRLPRPRPRPRYAPRP, for which the “shrunken log2 fold change” value came to 0.108.

On to RRIRVRPPRLPRPRPRPGFGPRP, for which the “shrunken log2 fold change” value is 0.408.

Turning to RRIRKRPPRLPRPRPRPWFCPRP, the “shrunken log2 fold change” value was -0.0352.

For RRIRDRPPRLPRPRPRPFWMPRP, the “shrunken log2 fold change” value stood at 0.0871.

On to RRIRIRPPRLPRPRPRPFVFPRP, for which the “shrunken log2 fold change” value is -0.356.

As for RRIRVRPPRLPRPRPRPNVFPRP, the “shrunken log2 fold change” value is 0.0413.

On to RRIRLRPPRLPRPRPRPMMKPRP, for which the “shrunken log2 fold change” value was -0.0811.

Turning to RRIRPRPPRLPRPRPRPIMHPRP, the “shrunken log2 fold change” value is -0.0526.

As to RRIRARPPRLPRPRPRPMGWPRP, the “shrunken log2 fold change” value is 0.468.

As for RRIRSRPPRLPRPRPRPKWCPRP, the “shrunken log2 fold change” value is -0.132.

Regarding RRIRMRPPRLPRPRPRPQPWPRP, the “shrunken log2 fold change” value worked out at 0.561.

For the sequence RRIRTRPPRLPRPRPRPNACPRP, the “shrunken log2 fold change” value was -0.0597.

Turning to RRIRCRPPRLPRPRPRPHVAPRP, the “shrunken log2 fold change” value is -0.0172.

Take RRIRQRPPRLPRPRPRPKREPRP: the “shrunken log2 fold change” value was found to be 0.119.

With RRIRGRPPRLPRPRPRPWNNPRP, the “shrunken log2 fold change” value was 0.139.

For RRIRCRPPRLPRPRPRPTLEPRP, the “shrunken log2 fold change” value came to 0.0452.

As for RRIRWRPPRLPRPRPRPPEPPRP, the “shrunken log2 fold change” value was -0.011.

As for RRIRWRPPRLPRPRPRPRWCPRP, the “shrunken log2 fold change” value is -0.00787.

In the case of RRIRPRPPRLPRPRPRPWRQPRP, the “shrunken log2 fold change” value stood at 0.0206.

As for RRIRCRPPRLPRPRPRPAASPRP, the “shrunken log2 fold change” value was 0.246.

With RRIRGRPPRLPRPRPRPMWGPRP, the “shrunken log2 fold change” value was -0.0435.

Consider RRIRTRPPRLPRPRPRPVWDPRP, for which the “shrunken log2 fold change” value is 0.13.

As to RRIRPRPPRLPRPRPRPEWIPRP, the “shrunken log2 fold change” value is -0.0215.

On to RRIRERPPRLPRPRPRPWVGPRP, for which the “shrunken log2 fold change” value turned out to be 0.0249.
